# Test results: US11834472B2, “Anti-IL-22 antibodies, antibody fragments, their immunoconjugates and uses thereof” (BioAtla, Inc., priority 2018, dated 2023)
# T1: mIL22 (Mus musculus, UniProt Q9JJY9)
# T1 sequence (Q9JJY9 34-179): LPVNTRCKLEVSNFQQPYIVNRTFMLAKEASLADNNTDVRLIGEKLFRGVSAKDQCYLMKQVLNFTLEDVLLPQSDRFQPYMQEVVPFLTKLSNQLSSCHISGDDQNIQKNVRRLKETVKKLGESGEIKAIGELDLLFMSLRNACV
# T2: mouse IL-22 (mIL-22) (Mus musculus, UniProt Q9JJY9)
# T2 sequence (Q9JJY9 34-179): T1 sequence (Q9JJY9 34-179)
# B1: hum10: parent humanized monoclonal antibody against human IL-22; light chain variable region SEQ ID NO: 19, heavy chain variable region SEQ ID NO:20 (antibody, V domains shown)
# VH: QVQLVQSGAEVKKPGASVKVSCKASGYIFTSYWIHWIRQPPGKGLEWIGRIYPGTGNTYYNEKFKGRVTISADKSISTAYLQWSSLKASDTAMYYCARSYDSSCAYWGQGTLVTVSS
# VL: AIQLTQSPSSLSASVGDRVTITCSASSSVSYMHWYLQKPGQSPQLLIYETSKLASGVPSRFSGSGSGTDFTFTISSLEAEDAATYYCQQWSSNPYITFGQGTKVEIKR
# modifications: Synthetic sequence hum10-HC; Synthetic sequence hum10-LC
# Columns and labels:
# mIL22 = biological target: T1, mIL22; assay: Affinity ELISA mIL22; format: binding
# Source text: The CPE™ library was screened for antibodies that were able to bind to both human IL-22 and mouse IL-22 with high affinity. Specifically, the CPE™ variants were screened by affinity ELISA for mouse IL-22 (mIL-22) binding affinity. The hum10 was included in every affinity ELISA plate as a control. The CPE™ variants with increased binding affinity to mIL-22 compared to hum10 were scored as primary CPE™ hits. The primary CPE™ hits were re-arrayed, re-transfected, and screened again by affinity ELISA and also by titration ELISA using both mIL-22 and human IL-22 (hIL-22) for antibodies that bind to both mIL-22 and hIL-22. These 10 mutant antibodies were selected based on ELISA data and sequence diversity, ability to scaled up and purified.
# mouse IL-22 (mIL-22) = biological target: T2, mouse IL-22 (mIL-22); assay: Inhibition of mIL-22 induced Stat3 phosphorylation in HepG2 cells; format: cell-based; settings: mAb 6.7 nM
# Protocol: One of the immediate functions of IL-22 is inducing phosphorylation of Stat3, a protein in the signaling pathway of IL-22. The 10 antibodies of Table 1 were tested in a cell-based assay for blocking IL-22-dependent phosphorylation of Stat3 through human or mouse IL-22 in HepG2 cells. Antibody hum10 and mutant CPE-LC-E049K were used as controls. Four concentrations of each of the antibodies were used: 0.11 μg/mL, 0.33 μg/mL, 1 μg/mL, and 3 μg/mL.
# 30,000 human HepG2 cells were seeded in 96 well plates and serum starved overnight. Three-fold dilutions of anti-IL-22 antibodies and control hum10 antibody at concentrations of 0.11 μg/mL, 0.33 μg/mL, 1 μg/mL, and 3 μg/mL were incubated with 200 ng/ml of hIL-22 or mIL-22 at 37° C. for one hour then added to the serum starved human HepG2 cells. The HepG2 cells were incubated with the antibody-IL-22 mixture at 37° C. for 20 minutes. After incubation, HepG2 cells were washed with PBS and lysed. Half of the cell lysate was used to determine the level of phosphorylated Stat3 using Cell Signaling kit #7300 following the vendor's protocol and the other half of the cell lysate was used to determine the level of total Stat3 by Western blot analysis using a Santa Cruz rabbit polyclonal antibody (Sc-7179) against human Stat3.
molecule,measurement,setting,value
B1,Affinity ELISA mIL22 50% max signal mAb,mIL22; first mIL22 line of Table 3,no binding
same,Affinity ELISA mIL22 50% max signal mAb,mIL22; second mIL22 line of Table 3,no binding
same,STAT3 Phosphorylation; mIL22 % inhibition,mouse IL-22 (mIL-22),no inhibition
